From paper PMC10798159

Assays:
macaque serum albumin [1] = test: ELISA; fit steady_state; antibody as scFv; antigen as not_told; on the surface: target; avidity monovalent
human serum albumin [2] = test: as above
macaque serum albumin [3] = test: SPR; fit kinetic; antibody as scFv; antigen as not_told; on the surface: target; avidity monovalent
human serum albumin [4] = test: as above
rat serum albumin = test: as above

Kd (macaque serum albumin [1]; pH 6.2): 600 ± 300 nM
Kd (macaque serum albumin [1]; pH 7.4): 400 ± 200 nM
Kd (human serum albumin [2]; pH 6.2): 80 ± 10 nM
Kd (human serum albumin [2]; pH 7.4): 60 ± 30 nM
Kd (macaque serum albumin [3]; pH 5.8): 900 nM
Kd (macaque serum albumin [3]; pH 7.4): 2300 ± 400 nM
Kd (human serum albumin [4]; pH 5.8): 500 nM
Kd (human serum albumin [4]; pH 7.4): 800 nM
Kd (rat serum albumin; pH 5.8): 5400 ± 1920 nM
Kd (rat serum albumin; pH 7.4): 12900 ± 5100 nM
Substance: SON-1210
